We go through one molecule from patent US20040180405A1 (NEUROSEARCH A S, published 2004).

Where a chain is given by its changes, count along the chain named. Bounds are passed on as bounds.

Common to all, as to assay: cell-based or functional assay
The target of experiment [1] is T1, KCNQ3(G318S) dominant negative mutant (human, UniProt O43525 1-872).
T1 sequence (looked up): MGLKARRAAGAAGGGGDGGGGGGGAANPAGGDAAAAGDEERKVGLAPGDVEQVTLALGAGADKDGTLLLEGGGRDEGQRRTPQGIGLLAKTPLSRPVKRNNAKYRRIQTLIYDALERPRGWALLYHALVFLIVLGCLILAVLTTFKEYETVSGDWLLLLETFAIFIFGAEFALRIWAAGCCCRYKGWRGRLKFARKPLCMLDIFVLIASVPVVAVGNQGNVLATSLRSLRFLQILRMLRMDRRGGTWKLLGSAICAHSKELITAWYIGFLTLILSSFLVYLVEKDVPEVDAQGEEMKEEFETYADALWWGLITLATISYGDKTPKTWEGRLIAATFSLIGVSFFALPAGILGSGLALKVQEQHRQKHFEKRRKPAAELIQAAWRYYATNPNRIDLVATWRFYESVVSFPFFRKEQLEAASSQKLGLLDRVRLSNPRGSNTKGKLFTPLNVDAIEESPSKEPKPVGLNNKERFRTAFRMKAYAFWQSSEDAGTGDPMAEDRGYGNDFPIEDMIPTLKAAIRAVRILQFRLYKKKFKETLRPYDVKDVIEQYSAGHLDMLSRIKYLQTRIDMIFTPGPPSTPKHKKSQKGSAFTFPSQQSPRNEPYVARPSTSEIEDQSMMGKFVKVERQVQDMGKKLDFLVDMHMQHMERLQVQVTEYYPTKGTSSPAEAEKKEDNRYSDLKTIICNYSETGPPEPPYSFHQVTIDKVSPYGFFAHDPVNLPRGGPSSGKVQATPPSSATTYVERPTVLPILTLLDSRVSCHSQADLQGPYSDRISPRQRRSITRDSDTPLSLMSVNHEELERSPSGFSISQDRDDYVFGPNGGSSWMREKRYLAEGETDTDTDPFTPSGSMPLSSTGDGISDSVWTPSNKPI

The target in a further experiment is T2, KCNQ3 (T323Y) mutant (human, UniProt O43525 1-872).
T2 sequence (looked up): T1 sequence (looked up) with S318G, T323Y

The target in experiment [2] is T3, KCNQ3 potassium channel subunit (human, UniProt O43525 1-872).
T3 sequence (looked up): T1 sequence (looked up) with S318G

B1: KCNQ5 potassium channel subunit (other)
chain: MKDVESGRGRVLLNSAAARGDGLLLLGTRAATLGGGGGGLRESRRGKQGARMSLLGKPLSYTSSQSCRRNVKYRRVQNYLYNVLERPRGWAFIYHAFVFLLVFGCLILSVFSTIPEHTKLASSCLLILEFVMIVVFGLEFIIRIWSAGCCCRYRGWQGRLRFARKPFCVIDTIVLIASIAVVSAKTQGNIFATSALRSLRFLQILRMVRMDRRGGTWKLLGSVVYAHSKELITAWYIGFLVLIFSSFLVYLVEKDANKEFSTYADALWWGTITLTTIGYGDKTPLTWLGRLLSAGFALLGISFFALPAGILGSGFALKVQEQHRQKHFEKRRNPAANLIQCVWRSYAADEKSVSIATWKPHLKALHTCSPTKKEQGEASSSQKLSFKERVRMASPRGQSIKSRQASVGDRRSPSTDITAEGSPTKVQKSWSFNDRTRFRPSLRLKSSQPKPVIDADTALGTDDVYDEKGCQCDVSVEDLTPPLKTVIRAIRIMKFHVAKRKFKETLRPYDVKDVIEQYSAGHLDMLCRIKSLQTRVDQILGKGQITSDKKSREKITAEHETTDDLSMLGRVVKVEKQVQSIESKLDCLLDIYQQVLRKGSASALALASFQIPPFECEQTSDYQSPVDSKDLSGSAQNSGCLSRSTSANISRGLQFILTPNEFSAQTFYALSPTMHSQATQVPISQSDGSAVAATNTIANQINTAPKPAAPTTLQIPPPLPAIKHLPRPETLHPNPAGLQESISDVTTCLVASKENVQVAQSNLTKDRSMRKSFDMGGETLLSVCPMVPKDLGKSLSVQNLIRSTEELNIQLSGSESSGSRGSQDFYPKWRESKLFITDEEVGPEETETDTFDAAPQPAREAAFASDSLRTGRSRSSQSICKAGESTDALSLPHVKLK
On to B1, for which the “current relative to WT KCNQ5 currents on co-injection with the dominant negative mutant” value in experiment [1] is under 50%. Also, in the experiment with KCNQ3 (T323Y) mutant, the “IC50 of extracellular TEA (small molecule) on currents of KCNQ5 co-expressed with KCNQ3 (T323Y); KCNQ5 homomers 71 mM” value was about 30 mM. For the same molecule, in experiment [2], the “IC50 of extracellular TEA (small molecule) on currents of co-expressed KCNQ5 and KCNQ3 (1:1); KCNQ5 homomers 71 mM” value was about 200 mM.
